Test results as given in paper PMC9132474 (Science Advances, 2022).

Target: the molecule itself
Experiment: cryo-EM structure

B1: human sodium-proton exchanger 3 (NHE3/SLC9A3) (natural protein, UniProt P48764 26-834, looked up)
chain: GGVEVEPGGAHGESGGFQVVTFEWAHVQDPYVIALWILVASLAKIGFHLSHKVTSVVPESALLIVLGLVLGGIVWAADHIASFTLTPTVFFFYLLPPIVLDAGYFMPNRLFFGNLGTILLYAVVGTVWNAATTGLSLYGVFLSGLMGDLQIGLLDFLLFGSLMAAVDPVAVLAVFEEVHVNEVLFIIVFGESLLNDAVTVVLYNVFESFVALGGDNVTGVDCVKGIVSFFVVSLGGTLVGVVFAFLLSLVTRFTKHVRIIEPGFVFIISYLSYLTSEMLSLSAILAITFCGICCQKYVKANISEQSATTVRYTMKMLASSAETIIFMFLGISAVNPFIWTWNTAFVLLTLVFISVYRAIGVVLQTWLLNRYRMVQLEPIDQVVLSYGGLRGAVAFALVVLLDGDKVKEKNLFVSTTIIVVFFTVIFQGLTIKPLVQWLKVKRSEHREPRLNEKLHGRAFDHILSAIEDISGQIGHNYLRDKWSHFDRKFLSRVLMRRSAQKSRDRILNVFHELNLKDAISYVAEGERRGSLAFIRSPSTDNVVNVDFTPRSSTVEASVSYLLRENVSAVCLDMQSLEQRRRSIRDAEDMVTHHTLQQYLYKPRQEYKHLYSRHELTPTEDEKQDREIFHRTMRKRLESFKSTKLGLNQNKKAAKLYKRERAQKRRNSSIPNGKLPMESPAQNFTIKEKDLELSDTEEPPNYDEEMSGGIEFLASVTKDTASDSPAGIDNPVFSPDEALDRSLLARLPPWLSPGETVVPSQRARTQIPYSPGTFCRLMPFRLSSKSVDSFLQADGPEERPPAALPESTHM
B1 was tested, and the “stoichiometry N” value was 2.
